Read-outs that look alike come from different tables or passages of the source.
How the values were obtained:
[1] = system: SUM185 cells; test: Fab-ZAP internalization assay (CTG cell viability); format: cell-based, human
Procedure: (§1) The ability of the anti-Nectin-4 antibodies to induce nectin-4 internalization was assessed on SUM190 cell lines expressing lower levels of nectin-4 and in SUM185 cells expressing higher levels of Nectin-4. The internalization was indirectly determined by using the Fab-ZAP human Internalization Kit (Advanced Targeting Systems) to allow the anti-Nectin-4 antibodies to target and eliminate Nectin-4 expressing cells, with measurement of cell viability using the CTG substrate (CellTiter-Glo® Luminescent Cell Viability Assay (Promega). Fab-ZAP is a chemical conjugate of goat anti-human monovalent antibody and the ribosome-inactivating protein, saporin. The antibodies used are affinity-purified polyclonal antibodies against both the heavy and light chain of human IgG. This secondary conjugate is used to evaluate the potential of a primary antibody to internalize.
(§2) Briefly, a concentration range of the anti-Nectin-4 antibodies or the controls were incubated with SUM190 or SUM185 cells. After 45-minute incubation at 4° C., the non-bound antibodies were washed away and Fab-ZAP was added on top of the cells. The newly formed complexes (anti-nectin-4 antibody+Fab-ZAP) internalized into the cells where the Saporin was released and stopped the protein synthesis leading to cell death. The internalization capability of the antibody was indirectly determined by the cell's viability: the more efficient was the cell killing; the better was the internalization capability of the antibody.

[2] = system: SUM190 cells; test: Fab-ZAP internalization assay (CTG cell viability); format: cell-based, human
Procedure: as §1, §2

[3] = system: SUM190 cells; test: In vitro ADC cytotoxicity, 5 days, CTG; format: cell-based, human; details: antibodies conjugated to ggfg-Dxd or PEG (8U)-Val-Ala-PAB-Exatecan, DAR=8
Procedure: We assessed the ability of the 5E7 antibody (mAb6) conjugated with camptothecin analogues (Dxd or Exatecan) to kill SUM190 cells. […] A first ADC was prepared in which antibodies were conjugated at 8 toxins per antibody (DAR=8) to a camptothecin analogue (Dxd) via a linker comprising an intracellularly cleavable tetrapeptide linker (GGFG) having the structure shown below, referred to as ggfg-Dxd:
A second ADC was prepared in which antibodies were conjugated at 8 toxins per antibody (DAR=8) to another camptothecin analogue (exatecan) via the cleavable linker having the structure below, referred to as PEG (8U)-Val-Ala-PAB-Exatecan:
Luminescence vs. Ab concentration was plotted on graph.
For each ADC, a concentration range of ADC was incubated with nectin-4-expressing cells. After incubation, CTG substrate was added at 1/1 ratio and the luminescent signal was read with a plate reader (Enspire). It allowed quantifying the ATP present (indicator of metabolically active cells) which was proportional to cell viability.

[4] = system: SUM190 cells; test: In vivo efficacy of ADCs, SUM190 mouse model of human breast cancer (Example 9); details: single i.v. injection 3 mg/kg; antibodies conjugated to ggfg-Dxd, DAR=8
Procedure: When tumors reached a volume between 195 and 250 mm3, mice were randomized into groups of 9 mice for intravenous treatment with a single injection of 3 mg/kg of camptothecin ADCs. Tumor growth were followed twice a week. Kaplan Meier survival curves were established by using GraphPad Prism V7 software according to the following criteria: When the tumor volume reached 1500 mm3, mice were euthanized and considered dead on the day of sacrifice (D).

[5] = system: rat Nectin-4; test: Flow cytometry species cross-reactivity on CHO cells; format: binding
rat Nectin-4, sequence (as listed by the source): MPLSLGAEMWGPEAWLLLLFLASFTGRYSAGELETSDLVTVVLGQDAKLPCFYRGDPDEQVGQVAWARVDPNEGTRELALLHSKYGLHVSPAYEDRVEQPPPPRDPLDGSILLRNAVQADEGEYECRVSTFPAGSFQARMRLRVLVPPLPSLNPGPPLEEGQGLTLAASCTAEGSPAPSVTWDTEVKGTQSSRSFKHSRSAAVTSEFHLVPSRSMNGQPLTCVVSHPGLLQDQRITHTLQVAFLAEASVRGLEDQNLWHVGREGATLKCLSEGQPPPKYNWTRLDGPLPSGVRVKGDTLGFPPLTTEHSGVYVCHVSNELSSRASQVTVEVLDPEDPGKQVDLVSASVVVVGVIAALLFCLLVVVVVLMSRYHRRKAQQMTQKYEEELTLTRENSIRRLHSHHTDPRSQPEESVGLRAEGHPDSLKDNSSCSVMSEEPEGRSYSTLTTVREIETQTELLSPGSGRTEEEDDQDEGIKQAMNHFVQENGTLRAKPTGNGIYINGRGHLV
Procedure: Anti-Nectin-4 antibodies were tested by flow cytometry for binding to different CHO cell lines made to express respectively the mouse, cynomolgus and rat Nectin-4 protein (including an N-terminal V5 tag not shown in the sequences below).

| Molecule | induction of internalization [1] | induction of internalization [2] | killing of SUM190 cells (cell viability) [3] | control of tumor growth [4] | binding to rat Nectin-4 expressing CHO cells [5] | binding to rat Nectin-4 expressing CHO cells ([5]; listed as mAb6) | binding to rat Nectin-4 expressing CHO cells ([5]; listed as mAb7) |
| --- | --- | --- | --- | --- | --- | --- | --- |
| 5E7 (antibody, V domains shown) VH: QVQLQQPGAELVKPGASVKLSCKASGYIFTSYWMHWVKQRPGQGLEWIGEIDPSDSYTNYNQKFKGKATLTLDKSSSTTYMQLSSLTSEDSAVYYCVRGYGNYGDYWGQGTTLTVSS VL: DVVMTQAAFSNPVTLGTSASISCRSSKSLLHSNGITYLYWYLQKPGQSPQLLIYQMSNLASGVPDRFSSSGSGTDFTLRISRVEAEDVGVYYCAQNLELPWTFGGGTKLEIK | more efficient than enfortumab in inducing internalization | as efficient as the enfortumab in inducing internalization | more potent that mAb3 conjugated to camptothecin analogue | strong ability to prevent tumor growth | showed binding to rat Nectin 4 expressing cells | bind to rat Nectin-4 | – |
| 10B12: anti-Nectin-4 antibody, VH SEQ ID NO: 24, VL SEQ ID NO: 25, binds junction of domain C1 and V (antibody, listed as Mus musculus, V domains shown) VH: QVQLQQPGAELVKPGASVKLSCKASGYTFTSYWMHWVKQRPGQGLEWIGEIDPSDSYTNYNQKFKGKATLTVDKSSSTAYMQLSSLTSEDSAVYYCVRGYGNYGDYWGQGTTLTVSS VL: DIVMTQAAFSNPVTLGTSASISCRSSKSLLHSNGITYLYWYLQKPGQSPQLLIYQMSNLASGVPDRFSSSGSGTDFTLRISRVEAEDVGVYYCAQNLELPWTFGGGTKLEIK | – | as efficient as the enfortumab in inducing internalization | – | – | showed binding to rat Nectin 4 expressing cells | – | bind to rat Nectin-4 |
| N41 (antibody, V domains shown) VH: QVQLKQSGPGLVQPSQSLSITCTVSGFSLTNYGVHWVRQSPGKGLEWLGVIWSGGSTDYNAAFISRLSISKDTSKSQVFFKMNSLQADDTAIYYCARELIHAMDNWGQGTSVTVSS VL: DIQMTQSPASLSVSVGETVTITCRASENIYSNLAWYQQKQGNSPQLLVFAATNLADGVPSRFSGSGSGTQYSLKINSLQSEDFGTYYCQHFWGTPTFGGGTKLEIK | – | – | – | no longer showed the ability to control tumor growth | – | – | – |

Source: patent publication US20240325557A1, “TREATMENT OF CANCER” (INNATE PHARMA, priority 2020, published 2024)
